Molecular target: SZ*-GFP-Ub4 (HA-tagged) (UniProt P0CG63)
Experiment: co-IP

fold increase of binding relative to the Ubx2-SZ*-GFP complex: 10 fold
B1: Ubx2-6xGly-3xFLAG (natural protein)
chain: MPVVNHEDSEFHLSHTEEDKLNEFQVITNFPPEDLPDVVRLLRNHGWQLEPALSRYFDGEWKGEPDQMGEPTQTSTPMAETLVPPALGPRPLLFTASLPVVRPLPANFRNDFRTIGLNGRSNTVWSMFESFSYDGNPFLFILLLIPRIINRLSATIFTFFCTLLSLHSISGGGNSGKPKISKVPKAPTRETHIPLAEILGDTKDKDAFCELKSFKPDISFNEALRIAKEEFKFMLLILVGDTYDTDTDTVDVNSKLLLEKILLNKKTLQYLRKIDNDLIIYLKCVHELEPWLVARQLGVRNTPEIFLIANVANKASHSETLPSQRLSILGKLKVNSLNRFLQSLTNVVEKYTPELVVNKTEMHELRMSREIKKLQEDAYKKSLEMDRIKAIEKEKSLKHAQDLKLNSTARQLKWLKACIDEIQPFETTGKQATLQFRTSSGKRFVKKFPSMTTLYQIYQSIGCHIYLAVYSSDPAEWSNALQDKIRQLSADDDMLCFKEGQLETATATTIEELGHIINNELTSFDLERGKLEFDFELVSPFPKYTVHPNEHMSVDQVPQLWPNGSLLVEALDEEDEEDEENEEQ

From article PMC8503845
